Source: IntAct's records for PubMed 18342605

B1: RNA end formation protein 2 (Saccharomyces cerevisiae), P42073 (parent)
chain: MSAPVPQLVNISHALQASTIQQIRLDMVDFNKDCKLSSIQLARIDKYIDSLQAALNQFTKDNLHIERKEKNVTEADIQLYSGLKSMYLDYLNQLIKLKHEKQHHSTPPIANDVSLDFFVNQLPKFSPEERKNYIDNLILNKNSHNRLSKMDGLVDAVINLCVLDTSVAENVRSYMKLLDTLGFQKGSNSTGTKANLKKKLASSKAKIKDSEKEKEKEKDKSKVKMKTKLKPSPLLNNDDKNSSPSPTASTSSMKKLKSGLFNKNEAKSTESLPTSSKKKLSFSKYLNKDDADMTKLGTKRSIDVDFKVNPEASTVASNIISSSTSGSSTTTVATPASSEEPLKKKTKISVQDSNVQSILRNGKPKKARISSIKFLDDSQLIKVYGDDLPNQGLQVSPTQLKKILKPFKEGEPKEIILFEDMSIKLKPLDLMFLKNTNSDDYMDISETKGGPIHCETRTPLIYRKNFNHFNPDLNKRPPREPIEFDLNGNTNSTPTIAKAFGKNSLLLRKDRGGLPYKHVPIVKRNKYPPRPVH
B2: Serine/threonine-protein phosphatase PP1-2 (Saccharomyces cerevisiae), P32598 (parent)
chain: MDSQPVDVDNIIDRLLEVRGSKPGQQVDLEENEIRYLCSKARSIFIKQPILLELEAPIKICGDIHGQYYDLLRLFEYGGFPPESNYLFLGDYVDRGKQSLETICLLLAYKIKYPENFFILRGNHECASINRIYGFYDECKRRYNIKLWKTFTDCFNCLPIAAIIDEKIFCMHGGLSPDLNSMEQIRRVMRPTDIPDVGLLCDLLWSDPDKDIVGWSENDRGVSFTFGPDVVNRFLQKQDMELICRAHQVVEDGYEFFSKRQLVTLFSAPNYCGEFDNAGAMMSVDESLLCSFQILKPAQKSLPRQAGGRKKK
B3: Serine/threonine-protein phosphatase PP1-2 (Saccharomyces cerevisiae), P32598 (parent)
chain: B2 chain
partner: B1 chain
B4: Serine/threonine-protein phosphatase PP1-2 (Saccharomyces cerevisiae), P32598 (parent)
chain: B2 chain
partner: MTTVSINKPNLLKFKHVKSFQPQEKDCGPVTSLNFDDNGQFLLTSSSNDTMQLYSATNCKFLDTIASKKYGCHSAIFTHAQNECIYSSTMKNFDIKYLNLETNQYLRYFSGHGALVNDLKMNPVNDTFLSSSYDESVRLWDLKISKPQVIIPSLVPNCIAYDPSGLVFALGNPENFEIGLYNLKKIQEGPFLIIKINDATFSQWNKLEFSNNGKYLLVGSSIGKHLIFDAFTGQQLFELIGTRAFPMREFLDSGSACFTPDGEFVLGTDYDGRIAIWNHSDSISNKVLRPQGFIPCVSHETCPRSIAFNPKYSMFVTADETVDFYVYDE

Variants of: B1
Settings: with pp12_yeast GLC7, P32598

Variant	effect of a mutation on the interaction
MSAPVPQLVNISHALQASTIQQIRLDMVDFNKDCKLSSIQLARIDKYIDSLQAALNQFTKDNLHIERKEKNVTEADIQLYSGLKSMYLDYLNQLIKLKHEKQHHSTPPIANDVSLDFFVNQLPKFSPEERKNYIDNLILNKNSHNRLSKMDGLVDAVINLCVLDTSVAENVRSYMKLLDTLGFQKGSNSTGTKANLKKKLASSKAKIKDSEKEKEKEKDKSKVKMKTKLKPSPLLNNDDKNSSPSPTASTSSMKKLKSGLFNKNEAKSTESLPTSSKKKLSFSKYLNKDDADMTKLGTKRSIDVDFKVNPEASTVASNIISSSTSGSSTTTVATPASSEEPLKKKTKISVQDSNVQSILRNGKPKKARISSIKALDDSQLIKVYGDDLPNQGLQVSPTQLKKILKPFKEGEPKEIILFEDMSIKLKPLDLMFLKNTNSDDYMDISETKGGPIHCETRTPLIYRKNFNHFNPDLNKRPPREPIEFDLNGNTNSTPTIAKAFGKNSLLLRKDRGGLPYKHVPIVKRNKYPPRPVH [F374A]	disrupting interaction strength

Variants of: B2
Settings: with sen1_yeast SEN1, Q00416
Sequence of sen1_yeast SEN1, Q00416 (Q00416 whole entry): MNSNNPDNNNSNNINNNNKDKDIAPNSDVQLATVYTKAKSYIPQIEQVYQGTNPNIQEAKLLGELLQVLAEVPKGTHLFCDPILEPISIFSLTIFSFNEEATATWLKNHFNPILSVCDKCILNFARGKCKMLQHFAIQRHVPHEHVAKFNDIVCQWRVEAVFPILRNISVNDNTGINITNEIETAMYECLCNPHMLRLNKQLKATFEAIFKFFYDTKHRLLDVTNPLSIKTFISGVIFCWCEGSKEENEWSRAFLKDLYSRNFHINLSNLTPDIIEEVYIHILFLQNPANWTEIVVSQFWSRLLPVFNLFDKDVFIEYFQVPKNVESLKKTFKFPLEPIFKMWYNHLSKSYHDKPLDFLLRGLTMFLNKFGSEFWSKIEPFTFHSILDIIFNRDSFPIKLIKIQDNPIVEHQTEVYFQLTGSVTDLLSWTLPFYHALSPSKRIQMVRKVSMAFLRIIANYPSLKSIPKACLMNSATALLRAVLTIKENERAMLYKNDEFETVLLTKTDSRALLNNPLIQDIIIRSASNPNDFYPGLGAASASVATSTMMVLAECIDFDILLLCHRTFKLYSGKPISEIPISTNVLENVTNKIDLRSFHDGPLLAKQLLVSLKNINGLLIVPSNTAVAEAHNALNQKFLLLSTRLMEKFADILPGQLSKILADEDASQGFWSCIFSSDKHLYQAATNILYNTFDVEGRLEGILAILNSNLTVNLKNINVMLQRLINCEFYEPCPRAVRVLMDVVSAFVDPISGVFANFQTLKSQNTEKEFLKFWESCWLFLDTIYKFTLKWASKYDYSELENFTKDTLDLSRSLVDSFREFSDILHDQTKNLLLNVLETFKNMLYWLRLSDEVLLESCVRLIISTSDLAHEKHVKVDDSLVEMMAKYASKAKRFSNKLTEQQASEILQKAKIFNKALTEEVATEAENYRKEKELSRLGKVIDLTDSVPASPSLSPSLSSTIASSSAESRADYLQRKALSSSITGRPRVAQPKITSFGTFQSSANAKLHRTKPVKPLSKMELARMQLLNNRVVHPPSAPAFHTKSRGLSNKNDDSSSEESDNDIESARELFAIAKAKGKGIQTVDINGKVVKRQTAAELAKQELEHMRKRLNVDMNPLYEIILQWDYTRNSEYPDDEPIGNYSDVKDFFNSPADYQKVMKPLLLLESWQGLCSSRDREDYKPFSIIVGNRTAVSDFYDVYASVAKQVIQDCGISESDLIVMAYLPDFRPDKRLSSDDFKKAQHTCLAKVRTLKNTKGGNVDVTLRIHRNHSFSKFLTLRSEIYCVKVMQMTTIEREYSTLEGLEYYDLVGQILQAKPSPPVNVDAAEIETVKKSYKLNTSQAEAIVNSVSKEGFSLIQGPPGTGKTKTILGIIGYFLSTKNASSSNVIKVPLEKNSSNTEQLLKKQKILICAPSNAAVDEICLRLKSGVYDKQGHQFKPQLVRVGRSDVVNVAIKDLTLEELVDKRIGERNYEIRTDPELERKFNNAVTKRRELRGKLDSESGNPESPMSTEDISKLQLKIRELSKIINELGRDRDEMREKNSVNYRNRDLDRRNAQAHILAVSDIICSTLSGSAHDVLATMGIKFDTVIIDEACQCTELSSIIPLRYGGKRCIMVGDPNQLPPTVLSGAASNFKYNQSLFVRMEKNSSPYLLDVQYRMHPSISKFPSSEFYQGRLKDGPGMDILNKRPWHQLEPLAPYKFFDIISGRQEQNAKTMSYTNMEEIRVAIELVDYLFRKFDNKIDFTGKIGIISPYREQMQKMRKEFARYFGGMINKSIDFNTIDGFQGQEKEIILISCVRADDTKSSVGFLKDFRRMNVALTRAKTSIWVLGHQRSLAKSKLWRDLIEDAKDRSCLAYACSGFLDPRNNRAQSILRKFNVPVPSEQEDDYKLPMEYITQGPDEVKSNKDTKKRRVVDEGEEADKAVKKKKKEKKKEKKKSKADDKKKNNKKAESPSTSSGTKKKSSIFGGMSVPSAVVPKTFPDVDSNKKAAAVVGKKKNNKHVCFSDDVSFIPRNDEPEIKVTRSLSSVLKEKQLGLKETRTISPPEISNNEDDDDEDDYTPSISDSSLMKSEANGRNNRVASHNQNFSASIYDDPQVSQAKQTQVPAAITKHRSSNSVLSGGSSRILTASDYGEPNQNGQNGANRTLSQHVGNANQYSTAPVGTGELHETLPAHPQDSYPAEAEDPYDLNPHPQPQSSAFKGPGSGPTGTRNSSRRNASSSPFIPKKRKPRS

Variant	effect of a mutation on the interaction
MDSQPVDVDNIIDRLLEVRGSKPGQQVDLEENEIRYLCSKARSIFIKQPILLELEAPIKICGDIHGQYYDLLRLFEYGGFPPESNYLFLGDYVDRGKQSLETICLLLAYKIKYPENFFILRGNHECASINRIYGFYDECKRRYNIKLWKTFTDCFNCLPIAAIIDEKIFCMHGGLSPDLNSMEQIRRVMRPTDIPDVGLLCDLLWSDPDKDIVGWSENDRGVSFTFGPDVVNRFLQKQDMELICRAHQVVEDGYEAFSKRQLVTLFSAPNYCGEFDNAGAMMSVDESLLCSFQILKPAQKSLPRQAGGRKKK [F256A]	disrupting interaction strength
MDSQPVDVDNIIDRLLEVRGSKPGQQVDLEENEIRYLCSKARSIFIKQPILLELEAPIKICGDIHGQYYDLLRLFEYGGFPPESNYLFLGDYVDRGKQSLETICLLLAYKIKYPENFFILRGNHECASINRIYGFYDECKRRYNIKLWKTFTDCFNCLPIAAIIDEKIFCMHGGLSPDLNSMEQIRRVMRPTDIPDVGLLCDLLWSDPDKDIVGWSENDRGVSFTFGPDVVNRFLQKQDMELICRAHQVVEDGYEAFSKRQLVTLFSAPNYCGEFDNAGAMMSVDESLLCSAQILKPAQKSLPRQAGGRKKK [F256A;F292A]	disrupting interaction strength
MDSQPVDVDNIIDRLLEVRGSKPGQQVDLEENEIRYLCSKARSIFIKQPILLELEAPIKICGDIHGQYYDLLRLFEYGGFPPESNYLFLGDYVDRGKQSLETICLLLAYKIKYPENFFILRGNHECASINRIYGFYDECKRRYNIKLWKTFTDCFNCLPIAAIIDEKIFCMHGGLSPDLNSMEQIRRVMRPTDIPDVGLLCDLLWSDPDKDIVGWSENDRGVSFTFGPDVVNRFLQKQDMELICRAHQVVEDGYEFFSKRQLVTLFSAPNYCGEFDNAGAMMSVDESLLCSAQILKPAQKSLPRQAGGRKKK [F292A]	decreasing interaction strength

Variants of: B3
Settings: with ref2_yeast REF2, P42073

Variant	effect of a mutation on the interaction
MDSQPVDVDNIIDRLLEVRGSKPGQQVDLEENEIRYLCSKARSIFIKQPILLELEAPIKICGDIHGQYYDLLRLFEYGGFPPESNYLFLGDYVDRGKQSLETICLLLAYKIKYPENFFILRGNHECASINRIYGFYDECKRRYNIKLWKTFTDCFNCLPIAAIIDEKIFCMHGGLSPDLNSMEQIRRVMRPTDIPDVGLLCDLLWSDPDKDIVGWSENDRGVSFTFGPDVVNRFLQKQDMELICRAHQVVEDGYEAFSKRQLVTLFSAPNYCGEFDNAGAMMSVDESLLCSAQILKPAQKSLPRQAGGRKKK [F256A;F292A]	disrupting interaction strength
MDSQPVDVDNIIDRLLEVRGSKPGQQVDLEENEIRYLCSKARSIFIKQPILLELEAPIKICGDIHGQYYDLLRLFEYGGFPPESNYLFLGDYVDRGKQSLETICLLLAYKIKYPENFFILRGNHECASINRIYGFYDECKRRYNIKLWKTFTDCFNCLPIAAIIDEKIFCMHGGLSPDLNSMEQIRRVMRPTDIPDVGLLCDLLWSDPDKDIVGWSENDRGVSFTFGPDVVNRFLQKQDMELICRAHQVVEDGYEAFSKRQLVTLFSAPNYCGEFDNAGAMMSVDESLLCSFQILKPAQKSLPRQAGGRKKK [F256A]	disrupting interaction strength
MDSQPVDVDNIIDRLLEVRGSKPGQQVDLEENEIRYLCSKARSIFIKQPILLELEAPIKICGDIHGQYYDLLRLFEYGGFPPESNYLFLGDYVDRGKQSLETICLLLAYKIKYPENFFILRGNHECASINRIYGFYDECKRRYNIKLWKTFTDCFNCLPIAAIIDEKIFCMHGGLSPDLNSMEQIRRVMRPTDIPDVGLLCDLLWSDPDKDIVGWSENDRGVSFTFGPDVVNRFLQKQDMELICRAHQVVEDGYEFFSKRQLVTLFSAPNYCGEFDNAGAMMSVDESLLCSAQILKPAQKSLPRQAGGRKKK [F292A]	decreasing interaction strength

Variants of: B4
Settings: with swd2_yeast SWD2, P36104

Variant	effect of a mutation on the interaction
MDSQPVDVDNIIDRLLEVRGSKPGQQVDLEENEIRYLCSKARSIFIKQPILLELEAPIKICGDIHGQYYDLLRLFEYGGFPPESNYLFLGDYVDRGKQSLETICLLLAYKIKYPENFFILRGNHECASINRIYGFYDECKRRYNIKLWKTFTDCFNCLPIAAIIDEKIFCMHGGLSPDLNSMEQIRRVMRPTDIPDVGLLCDLLWSDPDKDIVGWSENDRGVSFTFGPDVVNRFLQKQDMELICRAHQVVEDGYEAFSKRQLVTLFSAPNYCGEFDNAGAMMSVDESLLCSFQILKPAQKSLPRQAGGRKKK [F256A]	disrupting interaction strength
MDSQPVDVDNIIDRLLEVRGSKPGQQVDLEENEIRYLCSKARSIFIKQPILLELEAPIKICGDIHGQYYDLLRLFEYGGFPPESNYLFLGDYVDRGKQSLETICLLLAYKIKYPENFFILRGNHECASINRIYGFYDECKRRYNIKLWKTFTDCFNCLPIAAIIDEKIFCMHGGLSPDLNSMEQIRRVMRPTDIPDVGLLCDLLWSDPDKDIVGWSENDRGVSFTFGPDVVNRFLQKQDMELICRAHQVVEDGYEAFSKRQLVTLFSAPNYCGEFDNAGAMMSVDESLLCSAQILKPAQKSLPRQAGGRKKK [F256A;F292A]	disrupting interaction strength
MDSQPVDVDNIIDRLLEVRGSKPGQQVDLEENEIRYLCSKARSIFIKQPILLELEAPIKICGDIHGQYYDLLRLFEYGGFPPESNYLFLGDYVDRGKQSLETICLLLAYKIKYPENFFILRGNHECASINRIYGFYDECKRRYNIKLWKTFTDCFNCLPIAAIIDEKIFCMHGGLSPDLNSMEQIRRVMRPTDIPDVGLLCDLLWSDPDKDIVGWSENDRGVSFTFGPDVVNRFLQKQDMELICRAHQVVEDGYEFFSKRQLVTLFSAPNYCGEFDNAGAMMSVDESLLCSAQILKPAQKSLPRQAGGRKKK [F292A]	decreasing interaction strength
